# B1: Beta-1,3-galactosyl-O-glycosyl-glycoprotein beta-1,6-N-acetylglucosaminyltransferase (Homo sapiens), Q02742 (parent)
# chain: MLRTLLRRRLFSYPTKYYFMVLVLSLITFSVLRIHQKPEFVSVRHLELAGENPSSDINCTKVLQGDVNEIQKVKLEILTVKFKKRPRWTPDDYINMTSDCSSFIKRRKYIVEPLSKEEAEFPIAYSIVVHHKIEMLDRLLRAIYMPQNFYCIHVDTKSEDSYLAAVMGIASCFSNVFVASRLESVVYASWSRVQADLNCMKDLYAMSANWKYLINLCGMDFPIKTNLEIVRKLKLLMGENNLETERMPSHKEERWKKRYEVVNGKLTNTGTVKMLPPLETPLFSGSAYFVVSREYVGYVLQNEKIQKLMEWAQDTYSPDEYLWATIQRIPEVPGSLPASHKYDLSDMQAVARFVKWQYFEGDVSKGAPYPPCDGVHVRSVCIFGAGDLNWMLRKHHLFANKFDVDVDLFAIQCLDEHLRHKALETLKH
# Variants of: B1
# Conditions: with golp3_human GOLPH3, Q9H4A6
# Chain of golp3_human GOLPH3, Q9H4A6 (Q9H4A6 whole entry): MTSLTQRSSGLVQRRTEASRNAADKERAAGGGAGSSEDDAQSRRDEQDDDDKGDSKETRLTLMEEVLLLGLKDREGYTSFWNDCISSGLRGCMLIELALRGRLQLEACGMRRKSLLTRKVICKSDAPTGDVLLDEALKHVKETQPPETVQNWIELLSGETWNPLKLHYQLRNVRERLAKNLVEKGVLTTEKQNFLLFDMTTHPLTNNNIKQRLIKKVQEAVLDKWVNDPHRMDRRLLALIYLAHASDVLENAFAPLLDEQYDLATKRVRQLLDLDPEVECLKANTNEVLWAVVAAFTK
row,effect of a mutation on the interaction,Variant
1,disrupting interaction strength,MLRTLLAAALFSYPTKYYFMVLVLSLITFSVLRIHQKPEFVSVRHLELAGENPSSDINCTKVLQGDVNEIQKVKLEILTVKFKKRPRWTPDDYINMTSDCSSFIKRRKYIVEPLSKEEAEFPIAYSIVVHHKIEMLDRLLRAIYMPQNFYCIHVDTKSEDSYLAAVMGIASCFSNVFVASRLESVVYASWSRVQADLNCMKDLYAMSANWKYLINLCGMDFPIKTNLEIVRKLKLLMGENNLETERMPSHKEERWKKRYEVVNGKLTNTGTVKMLPPLETPLFSGSAYFVVSREYVGYVLQNEKIQKLMEWAQDTYSPDEYLWATIQRIPEVPGSLPASHKYDLSDMQAVARFVKWQYFEGDVSKGAPYPPCDGVHVRSVCIFGAGDLNWMLRKHHLFANKFDVDVDLFAIQCLDEHLRHKALETLKH [R7A;R8A;R9A]

# Variants of: B1
# Conditions: with golp3_human GOLPH3, Q9H4A6
# Remark: another data set of the same source
row,effect of a mutation on the interaction,Variant
1,disrupting interaction strength,MLRTAARRRLFSYPTKYYFMVLVLSLITFSVLRIHQKPEFVSVRHLELAGENPSSDINCTKVLQGDVNEIQKVKLEILTVKFKKRPRWTPDDYINMTSDCSSFIKRRKYIVEPLSKEEAEFPIAYSIVVHHKIEMLDRLLRAIYMPQNFYCIHVDTKSEDSYLAAVMGIASCFSNVFVASRLESVVYASWSRVQADLNCMKDLYAMSANWKYLINLCGMDFPIKTNLEIVRKLKLLMGENNLETERMPSHKEERWKKRYEVVNGKLTNTGTVKMLPPLETPLFSGSAYFVVSREYVGYVLQNEKIQKLMEWAQDTYSPDEYLWATIQRIPEVPGSLPASHKYDLSDMQAVARFVKWQYFEGDVSKGAPYPPCDGVHVRSVCIFGAGDLNWMLRKHHLFANKFDVDVDLFAIQCLDEHLRHKALETLKH [L5A;L6A]

# From IntAct's records for PubMed 23027862
